Source: patent US20240132578A1

Tests used:
Assay in all cases: cell-based or functional assay
[1] = target: HIV-1 Env of pseudovirus Du172 (HIV-1)
[2] = target: Envelope protein of control pseudovirus MuLV (MuLV)
[3] = target: HIV-1 Env of pseudovirus ZM233 (HIV-1)
[4] = target: HIV-1 Env of pseudovirus PVO.4 (HIV-1)
[5] = target: HIV-1 Env of pseudovirus THRO.18 (HIV-1)
[6] = target: HIV-1 Env of pseudovirus TR0.11 (HIV-1)
[7] = target: HIV-1 Env of pseudovirus ZM214 (HIV-1)
[8] = target: HIV-1 ADA envelope glycoprotein (Env), on pseudovirus (HIV-1 isolate ADA)
[9] = target: HIV-1 Env of pseudovirus AC10 (HIV-1)
[10] = target: HIV-1 Env of pseudovirus ZM249 (HIV-1)
[11] = target: HIV-1 Env of pseudovirus CAP45 (HIV-1)
[12] = target: HIV-1 Env of pseudovirus CAAN (HIV-1)
[13] = target: HIV-1 Env of pseudovirus REJ04541 (HIV-1)
[14] = target: HIV-1 JR-FL Env E168K, on pseudovirus (HIV-1 isolate JR-FL (clade B))
[15] = target: HIV-1 Env of pseudovirus DU156 (HIV-1)
[16] = target: HIV-1 92RW020 envelope glycoprotein (Env), on pseudovirus (HIV-1 isolate 92RW020 (clade A))
[17] = target: HIV-1 Env of pseudovirus DU422 (HIV-1)

B1: 1469_M23 (PG16) (TCN-118) (antibody, V domains shown)
VH: QEKLVESGGGVVQPGGSLRLSCLASGFTFHKYGMHWVRQAPGKGLEWVALISDDGMRKYHSDSMWGRVTISRDNSKNTLYLQFSSLKVEDTAMFFCAREAGGPIWHDDVKYYDFNDGYYNYHYMDVWGKGTTVTVSS
VL: QSALTQPASVSGSPGQTITISCNGTRSDVGGFDSVSWYQQSPGRAPKVMVFDVSHRPSGISNRFSGSKSGNTASLTISGLHIEDEGDYFCSSLTDRSHRIFGGGTKLTVLG
[1]
  IC50, pseudovirus neutralization (TZM-bl assay): < 0.01 µg/mL
[2]
  IC50, pseudovirus neutralization (TZM-bl assay), control virus: > 25 µg/mL
[3]
  IC50, pseudovirus neutralization (TZM-bl assay): < 0.01 µg/mL
[4]
  IC50, pseudovirus neutralization (TZM-bl assay): 21.2 µg/mL
[5]
  IC50, pseudovirus neutralization (TZM-bl assay): 7.01 µg/mL
[6]
  IC50, pseudovirus neutralization (TZM-bl assay): 7.52 µg/mL
[7]
  IC50, pseudovirus neutralization (TZM-bl assay): > 25 µg/mL
[8]
  IC50 (ug/ml), pseudovirus neutralization, TZM-bl assay: 0.005 µg/mL
[9]
  IC50, pseudovirus neutralization (TZM-bl assay): < 0.01 µg/mL
[10]
  IC50, pseudovirus neutralization (TZM-bl assay): < 0.01 µg/mL
[11]
  IC50, pseudovirus neutralization (TZM-bl assay): < 0.01 µg/mL
[12]
  IC50, pseudovirus neutralization (TZM-bl assay): 17.7 µg/mL
[13]
  IC50, pseudovirus neutralization (TZM-bl assay): 0.39 µg/mL
[14]
  IC50 (ug/ml), pseudovirus neutralization, TZM-bl assay: 0.005 µg/mL
[15]
  IC50, pseudovirus neutralization (TZM-bl assay): < 0.01 µg/mL
[16]
  IC50 (ug/ml), pseudovirus neutralization, TZM-bl assay: 0.05 µg/mL
[17]
  IC50, pseudovirus neutralization (TZM-bl assay): 0.97 µg/mL

B2: 1489_I13 (PG16) (TCN-120) (antibody, V domains shown)
VH: QEQLLESGGGVVQPGGSLRLSCLASGFTFHKYGMHWVRQAPGKGLEWVALISDDGMRKYHSNSMWGRVTISRDNSKNTLYLQFSSLKVEDTAMFFCAREAGGPIWHDDVKYYDFNDGYYNYHYMDVWGKGTTVTVSS
VL: QSALTQPASVSGSPGQTITISCNGTSSDVGGFDSVSWYQQSPGKAPKVMVFDVSHRPSGISNRFSGSKSGNTASLTISGLHIEDEGDYFCSSLTDRSHRIFGGGTKVTVLG
[1]
  IC50, pseudovirus neutralization (TZM-bl assay): < 0.01 µg/mL
[2]
  IC50, pseudovirus neutralization (TZM-bl assay), control virus: > 25 µg/mL
[3]
  IC50, pseudovirus neutralization (TZM-bl assay): < 0.01 µg/mL
[4]
  IC50, pseudovirus neutralization (TZM-bl assay): 20.6 µg/mL
[5]
  IC50, pseudovirus neutralization (TZM-bl assay): 7.41 µg/mL
[6]
  IC50, pseudovirus neutralization (TZM-bl assay): 10.9 µg/mL
[7]
  IC50, pseudovirus neutralization (TZM-bl assay): > 25 µg/mL
[8]
  IC50 (ug/ml), pseudovirus neutralization, TZM-bl assay: 0.008 µg/mL
[9]
  IC50, pseudovirus neutralization (TZM-bl assay): < 0.01 µg/mL
[10]
  IC50, pseudovirus neutralization (TZM-bl assay): < 0.01 µg/mL
[11]
  IC50, pseudovirus neutralization (TZM-bl assay): < 0.01 µg/mL
[12]
  IC50, pseudovirus neutralization (TZM-bl assay): 24.9 µg/mL
[13]
  IC50, pseudovirus neutralization (TZM-bl assay): 0.34 µg/mL
[14]
  IC50 (ug/ml), pseudovirus neutralization, TZM-bl assay: 0.005 µg/mL
[15]
  IC50, pseudovirus neutralization (TZM-bl assay): < 0.01 µg/mL
[16]
  IC50 (ug/ml), pseudovirus neutralization, TZM-bl assay: 0.03 µg/mL
[17]
  IC50, pseudovirus neutralization (TZM-bl assay): 1.87 µg/mL
